Measurements taken from patent US6602854B1, “Branched multimeric Apo A-I agonist compounds” (priority 1997, dated 2003).
Where no end group is shown, it is not given here. [ ]: non-standard residue; d: D form. Nal = non-natural residue; Aib = CC(C)(N)C(=O)O

Key:
[1] = Circular dichroism: degree of helicity (free, SUVs, micelles, TFE); details: for He (%) free: percent helicity of free, unbound peptide; for He (%) SUVs: percent helicity of peptide-SUV complexes; for He (%) mics: percent helicity of peptide-micelle complexes; for He (%) TFE: percent helicity of peptide-TFE solution
Description: Far UV circular dichroism spectra were recorded between 190 and 260 nm (in 0.5 nm or 0.2 nm increments) with a AVIV62DS spectrometer (AVIV Associates, Lakewood, N.J., USA) equipped with a thermoelectric cell holder and sample changer. The instrument was calibrated with (+)-10-camphoric acid. Between one and three scans were collected for each sample, using 10 cm, 5 cm, 1 cm and 0.1 cm path length quartz Suprasil cells, respectively, for peptide concentrations of 10^−7 M to 10^−4 M. The bandwidth was fixed at 1.5 nm and the scan speed to 1 s per wavelength step. The reported data are the mean of at least 2 or 3 independent measurements.
After background substraction, spectra were converted to molar ellipticity (θ) per residue in deg. […] dmol^−1. The peptide concentration was determined by amino acid analysis and also by absorption spectrometry on a Perkin Elmer Lambda 17 UV/Visible spectrophotometer when the peptide contained a chromophore (tryptophane, dansyl, naphtylalanine).
CD spectra were obtained with free, unbound peptide (5 μM in 5 mM phosphate buffer, pH 7.4); with peptide-SUV complexes (20:1 EPC:Chol., Ri=30 and Ri=50); with peptide-micelle complexes (1-myristoyl-2-hydroxy-sn-glycero-3-phosphatidyl choline, Ri=100); and with free, unbound peptide in the presence of 2,2,2-trifluoroethanol (TFE) (5 μM peptide, 90% vol TFE).
The SUVs were obtained by dispersing the lipids (10 mM, 20:1 EPC:Chol., Avanti Polar Lipids, Ala.) in phosphate buffer (5 mM, pH 7.4) with bubbling N2 for 5 min., followed by sonication (1.5 hr.) in a bath sonicator. The homogeneity of the preparation was checked by FPLC.
The micelles were obtained by dispersing the lipid (6 mM 1-myristoyl-2-hydroxy-sn-glycero-3-phosphatidyl choline, Avanti Polar Lipids, AL) in phosphate buffer (5 mM, pH 7.4) with bubbling N2 for 5 min., followed by vortexing.
To obtain the peptide-SUV complexes, SUVs were added to the peptide (5 μM in 5 mM phosphate buffer, pH 7.4) at a phospholipid-peptide molar ratio (Ri) of 30 or 50.
To obtain the peptide-micelle complexes, micelles were added to the peptide (5 μM in 5 mM phosphate buffer, pH 7.4) at a Ri of 100.
All spectra were recorded at 37° C. The stability of peptide 4 (SEQ ID NO:4) as a function of temperature (both free in buffer and in micelles) was determined by recording spectra at a series of different temperatures.
The degree of helicity of peptide 4 (SEQ ID NO:4) as a function of concentration was also determined.
The degree of helicity of the peptides in the various conditions was determined from the mean residue ellipticity at 222 nm (Chen et al., 1974, Biochemistry 13:3350-3359) or by comparing the CD spectra obtained to reference spectra available on databases (16 helical reference spectra from Provencher & Glockner, 1981, Biochemistry 20:33-37; denatured protein reference spectra from Venyaminov et al., 1993, Anal. Biochem. 214:17-24) using the CONTIN curve-fitting algorithm version 2DP, CD-1 pack (Aug. 1982) (Provencher, 1982, Comput. Phys. Commun. 27:213-227, 229-242). Acceptable fit was determined using the statistical analysis methodology provided by the CONTIN algorithm.

[2] = HDL cholesterol in rabbits after injection of phospholipid/peptide complexes; assay type: in vivo, Male New Zealand White rabbits
Description: Small discoidal particles consisting of phospholipid (DPPC) and peptide were prepared following the cholate dialysis method. The phospholipid was dissolved in chloroform and dried under a stream of nitrogen. The peptide was dissolved in buffer (saline) at a concentration of 1-2 mg/ml. The lipid film was redissolved in buffer containing cholate (43° C.) and the peptide solution was added at a 3:1 phospholipid/peptide weight ratio. The mixture was incubated overnight at 43° C. and then dialyzed at 43° C. (24 hr.), room temperature (24 hr.) and 4° C. (24 hr.), with three changes of buffer (large volumes) at temperature point. The complexes were filter sterilized (0.22 μm) for injection and storage at 4° C.
Male New Zealand White rabbits (2.5-3 kg) were injected intravenously with a dose of phospholipid/peptide complex (5 or 10 mg/kg bodyweight, expressed as peptide) in a single bolus injection not exceeding 10-15 ml. The animals were slightly sedated before the manipulations. Blood samples (collected on EDTA) were taken before and 5, 15, 30, 60, 240 and 1440 minutes after injection. The hematocrit (Hct) was determined for each sample. Samples were aliquoted and stored at −20° C. before analysis.
Plasma Lipids. The total plasma cholesterol, plasma triglycerides and plasma phospholipids were determined enzymatically using commercially available assays according to the manufacturer's protocols (Boehringer Mannheim, Mannheim, Germany and Biomerieux, 69280, Marcy-L'étoile, France).
Lipoprotein Profiles. The plasma lipoprotein profiles of the fractions obtained after the separation of the plasma into its lipoprotein fractions were determined by spinning in a sucrose density gradient. The fractions were collected and in each individual fraction the phospholipid and cholesterol content was measured enzymatically.

Substance	He (%) free [1]	He (%) SUVs [1]	He (%) mics [1]	He (%) TFE [1]	also measured
DWLKAFYDKVFEKFKEFF [peptide 245, reference compound]	38%	70%	77%		
EWLKAFYEKVLEKLKELF [peptide 248, reference compound]	18%	13%	45%		
EWLKAFYEKVLEKLKELF* [peptide 238, reference compound]	49%	60%	72%	58%	
LDDLLQKWAEAFNQLLKK [peptide 237, reference compound]	30%	45%	66%		
PVLDEFREKLNEALEALKQKLK [peptide 94, reference compound]	18%	27%	70%	63%	
PVLDEFREKLNERLEALKQKLK [peptide 109, reference compound]	19%	23%	45%	58%	
PVLDFFRELLNEXLEALKQKLK (PVLDFFRELLNE[Aib]LEALKQKLK) [peptide 25]	46%		82%	93%	
PVLDLFKELLNELLEALKQKLK [peptide 7]	77%	85%	89%	73%	
PVLDLFRELLNEGLEALKQKLK [peptide 8]	20%	61%	90%	93%	% helicity in the presence of TFE [1]: 93%; helical structure in the presence of lipids [1]: 61-93%; % Helicity Free ([1]; peptide concentration 5.0 μM, free in buffer): 20%
PVLDLFRELLNELLEWLKQKLK [peptide 3]	70%	80%	95%	95%	Increase (%) in HDL cholesterol ([2]; 10 mg/kg as peptide/DPPC complexes, 15 min): 84%; Increase (%) in HDL cholesterol ([2]; 10 mg/kg as peptide/DPPC complexes, 30 min): 71%; Increase (%) in HDL cholesterol ([2]; 10 mg/kg as peptide/DPPC complexes, 60 min): 60%; Increase (%) in HDL cholesterol ([2]; 10 mg/kg as peptide/DPPC complexes, 240 min): 14.5%
PVLDLFRELLNELLEZLKQKLK (PVLDLFRELLNELLE[Nal]LKQKLK; not fully specified) [peptide 1, Z is Nal]	77%	81%	85%	69%	Increase (%) in HDL cholesterol ([2]; 5 mg/kg as peptide/DPPC complexes, 15 min): 24.3%; Increase (%) in HDL cholesterol ([2]; 5 mg/kg as peptide/DPPC complexes, 30 min): 95%; Increase (%) in HDL cholesterol ([2]; 5 mg/kg as peptide/DPPC complexes, 60 min): 40.7%; Increase (%) in HDL cholesterol ([2]; 5 mg/kg as peptide/DPPC complexes, 240 min): 29%
PVLDLFRELLNELWEALKQKLK [peptide 28]	82%	90%	98%	81%	
PVLDLFRELLNEXLEALKQKLK (PVLDLFRELLNE[Aib]LEALKQKLK) [peptide 6]	57%	70%	93%	99%	
